The assay addresses テネイシンC (human) (UniProt P24821). Kind of assay: SPR (Biacore 2000). In general terms: In SPR one partner is held on a chip, and binding of the other changes the refractive index at the surface.

This passage reports Kd results from patent publication JP2013242308A.

B1: 抗TNC−4F10のscFvフラグメント(scFv 4F10) (scFv, not shown: small tags and cut ends)
scFv: EVLLQQSGPELVKPGASVKIPCKASGYTFTDYNMDWMKQSHGKSLEWIGDINPKSGNSIYNQKFKGKATLTVDKSSSTAYMELRSLTSEDTAVYYCAGRDWSAWFAFWGQGTLVSVSAGGGGSGGGGSGGGGSDVVMTQTPLTLSVIIGQPASISCKSSQSLLYSNGKTYLNWLLQRPGQSPKRLIYLVSKLDSGVPDRFTGSGSGTDFTLKISRVEAEDLGDYYCVQTTHFPWTFGGGTKLEIKDYKDDDDK
Regarding B1, the Kd – broadly, the free concentration of one partner at which half of the binding sites on the other are occupied at equilibrium, for simple one-to-one binding – was determined as 40 nM. This counts as double-digit nanomolar.
